Experimental data taken from patent US20240360242A1 (KISOJI BIOTECHNOLOGY, published 2024).
Changes are numbered by the printed parent chain.

T1: recombinant human TROP2 extracellular domain (aa 1-274) comprising His tag (human, UniProt P09758 27-274)
T1 construct: Used here for all assays on recombinant human TROP2 (ELISA, immunoblot, SPR, crystal), although only some of them name the catalogue number; also called human recombinant TROP2; recombinant human TROP2 protein; not shown: His tag
T1 sequence: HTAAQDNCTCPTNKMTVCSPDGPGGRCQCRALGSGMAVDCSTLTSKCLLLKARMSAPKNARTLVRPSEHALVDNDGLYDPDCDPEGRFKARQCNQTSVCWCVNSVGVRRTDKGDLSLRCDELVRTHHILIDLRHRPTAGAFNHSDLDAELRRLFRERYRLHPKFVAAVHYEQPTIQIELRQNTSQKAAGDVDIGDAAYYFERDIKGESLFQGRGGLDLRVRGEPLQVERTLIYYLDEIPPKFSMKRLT

T2: recombinant cynomolgus/Rhesus TROP2 full-length extracellular domain (cynomolgus/Rhesus, UniProt P09758 27-274 (human entry))
T2 construct: also called cynomolgus TROP2
T2 chain: T1 sequence with M36V, S67N, I204V

T3: recombinant human EpCAM (human, UniProt P16422 24-265)
T3 construct: also called rhEpCAM
T3 sequence (looked up): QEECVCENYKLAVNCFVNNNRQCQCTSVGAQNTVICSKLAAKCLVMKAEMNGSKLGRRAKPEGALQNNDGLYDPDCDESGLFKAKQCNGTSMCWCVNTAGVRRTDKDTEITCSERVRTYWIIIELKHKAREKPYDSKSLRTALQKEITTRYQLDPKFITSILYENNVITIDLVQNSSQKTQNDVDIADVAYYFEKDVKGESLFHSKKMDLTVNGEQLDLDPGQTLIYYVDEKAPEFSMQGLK

B1: KD005 (antibody, human IgG1, V domains shown)
VH: QVQLQESGGGLVEAGGSLRLSCAASGFTFSGSDMSWVRQAPGKGPEWVSYITSGGTTYYPDSVKGRFTISRDNAKNTLYLQMNSLKPDDTALYRCAKSRLTDSHYVEDAWGQGTQVTVSS
notes: also called anti-TROP2 sdAb KD005
B2: KD002 (antibody, human IgG1, V domains shown)
VH: QVQLQESGGGMVQVGGSLRLSCAASGFPFSSADMSWVRQAPGKGPEWVSYINADGSKTYYPDSVKGRFTISRDNAKNTLYLLMNNLKPEDTALYRCARAKLTDTHYVEDYWGQGTQVTVSS
notes: also called anti-TROP2 sdAb KD002
B3: KD001 (antibody, human IgG1, V domains shown)
VH: B1 VH with L11M, E13H, A14P, K86T, S98A
notes: also called anti-TROP2 sdAb KD001
B4: KD004 (antibody, human IgG1, V domains shown)
VH: B1 VH with E13Q, A14P, G16R, S53G, G54S, I69T, T77M, S98A
notes: also called anti-TROP2 sdAb KD004
B5: KD003 (antibody, human IgG1, V domains shown)
VH: B2 VH with V14P, P28T, S31N, A32Y, D54G, K57N, Y59D, T78M
notes: also called anti-TROP2 sdAb KD003

Molecular target: T1, recombinant human TROP2 extracellular …
Assay: ELISA, coated rh TROP2
Experimental: Human TROP2 recombinant proteins were coated on 96-well ELISA plates at the concentration of 1 μg/mL. Plates were covered with adhesive plate cover and stored at 4° C. overnight. The next day, plates were washed 3× with washing buffer (PBS with 0.1% Tween™ 20). Plates were blocked with 2% fat-free BSA in washing buffer for 1 hour at 37° C. During the incubation time, the TROP2 reference antibodies, as well as the humanized variants, were diluted in the blocking buffer to the indicated concentrations. […] After blocking, the blocking buffer was removed from the wells and 100 μL of anti-TROP2 sdAbs dilutions were transferred to the corresponding wells. Plates were covered with adhesive plates cover and incubated at 37° C. for 1 hour. During the primary antibody incubation, the secondary antibody (goat anti-human IgG, HRP conjugated) was diluted 1 in 5000 with the blocking buffer. Plates were washed 3× with blocking buffer, followed by secondary antibody incubation for another 1 hour at 37° C. After the secondary antibody incubation, plates were washed 3× with washing buffer and added with 100 μL of ELISA chemiluminescent substrate (Thermofisher). The luminescence signal was detected by SpectraMax i3x at […].

EC50 [nM]	EC50% to KD005	Binder
0.08	1 ratio to KD005	B1
0.055	0.688 ratio to KD005	B2

Molecular target: T1, recombinant human TROP2 extracellular …
Assay: ELISA on coated recombinant TROP2 ECD, 1:5 dilutions from 1000 nM, RLU
Experimental: (§1) TROP2 full-length extracellular domain recombinant proteins including cynomolgus/Rhesus (FIG. 12A), human (FIG. 12B), mouse (FIG. 12C), and rat (FIG. 12D) were coated on 96-well ELISA plates at the concentration of 1 μg/mL. Plates were covered with adhesive plate cover and stored at 4° C. overnight. The next day, plates were washed 3× with washing buffer (PBS with 0.1% Tween™ 20). Plates were blocked with 2% fat-free BSA in washing buffer for 1 hour at 37° C. During the incubation time, the anti-TROP2 sdAbs were diluted in the blocking buffer to the indicated concentrations. In brief, the anti-TROP2 sdAbs starting concentration was 1000 nM and serial diluted 1 in 5 to 0.02048 pM. After blocking, the blocking buffer was removed from the wells and 100 μL of anti-TROP2 sdAbs dilutions were transferred to the corresponding wells. Plates were covered with adhesive plates cover and incubated at 37° C. for 1 hour. During the primary antibody incubation, the secondary antibody (goat anti-human IgG, HRP conjugated) was diluted 1 in 5000 with the blocking buffer. Plates were washed 3× with blocking buffer, followed by secondary antibody incubation for another 1 hour at 37° C. After the secondary antibody incubation, plates were washed 3× with washing buffer and added with 100 μL of ELISA chemiluminescent substrate (Thermofisher). The luminescence signal was detected by SpectraMax i3x at […].

EC50 (read off the curve) [nM]	Binder
~0.2	B3
~0.2	B4
~0.2	B1
~0.2	B2
~0.2	B5

Molecular target: T2, recombinant cynomolgus/Rhesus TROP2 …
Assay: as above
Experimental: as §1

EC50 (read off the curve) [nM]	Binder
~0.2	B3
~0.2	B4
~0.2	B1
~0.2	B2
~0.2	B5

Molecular target: T3, recombinant human EpCAM
Assay: ELISA on coated recombinant protein, 200 nM antibody, RLU

binding result	Binder
no binding (tested: 200 nM)	B3
no binding (tested: 200 nM)	B4
no binding (tested: 200 nM)	B1
no binding (tested: 200 nM)	B2
no binding (tested: 200 nM)	B5

Molecular target: T1, recombinant human TROP2 extracellular …
Assay: SPR

Kd [nM]	koff [s⁻¹]	kon [M⁻¹ s⁻¹]	Binder
0.0826	7.54e-05	913000	B3
0.0294	4.42e-05	1.51e+06	B4
0.0268	4.27e-05	1.59e+06	B1
0.0432	5.69e-05	1.32e+06	B2
0.0459	4.88e-05	1.06e+06	B5
